Test results taken from US20250276075A1, “METHODS OF TREATING AXL-EXPRESSING CANCERS WITH ANTI-AXL ANTIBODIES, ANTIBODY FRAGMENTS AND THEIR IMMUNOCONJUGATES” (BIOATLA, INC., priority 2020, published 2025).
Entries after “also recorded” stand apart in the source; their conditions may differ.

Assays:
[1] = molecular target: T1, human Axl (Homo sapiens, UniProt P30530); experiment: BA3011 binding to human Axl in TME and normal tissue conditions
T1 sequence (P30530 26-894): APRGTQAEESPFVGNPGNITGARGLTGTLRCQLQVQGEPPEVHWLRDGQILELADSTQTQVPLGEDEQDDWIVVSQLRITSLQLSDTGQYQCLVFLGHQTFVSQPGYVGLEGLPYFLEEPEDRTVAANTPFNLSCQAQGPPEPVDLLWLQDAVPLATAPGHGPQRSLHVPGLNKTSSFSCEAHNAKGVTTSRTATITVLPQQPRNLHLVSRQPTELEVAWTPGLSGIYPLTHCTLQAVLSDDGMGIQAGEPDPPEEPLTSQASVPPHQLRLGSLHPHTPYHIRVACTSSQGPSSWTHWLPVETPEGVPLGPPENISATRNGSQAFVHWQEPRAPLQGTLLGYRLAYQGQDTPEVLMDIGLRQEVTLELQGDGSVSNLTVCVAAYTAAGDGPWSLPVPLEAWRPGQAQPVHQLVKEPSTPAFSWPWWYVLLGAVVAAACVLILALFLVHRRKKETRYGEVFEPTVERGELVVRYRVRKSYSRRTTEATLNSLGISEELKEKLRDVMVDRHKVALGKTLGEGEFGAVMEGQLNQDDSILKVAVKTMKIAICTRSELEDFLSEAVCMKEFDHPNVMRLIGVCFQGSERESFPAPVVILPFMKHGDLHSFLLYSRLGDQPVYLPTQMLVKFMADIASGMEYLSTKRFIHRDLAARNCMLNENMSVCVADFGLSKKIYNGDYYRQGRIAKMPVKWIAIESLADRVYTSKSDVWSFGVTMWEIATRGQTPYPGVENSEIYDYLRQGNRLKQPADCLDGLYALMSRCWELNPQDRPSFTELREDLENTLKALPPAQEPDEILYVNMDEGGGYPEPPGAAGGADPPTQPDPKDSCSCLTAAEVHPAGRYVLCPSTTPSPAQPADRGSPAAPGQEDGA

[2] = molecular target: T2, rat Axl (Rattus norvegicus, UniProt A0A0G2K2H0); experiment: BA3011 binding to rat Axl
T2 sequence (A0A0G2K2H0 21-879): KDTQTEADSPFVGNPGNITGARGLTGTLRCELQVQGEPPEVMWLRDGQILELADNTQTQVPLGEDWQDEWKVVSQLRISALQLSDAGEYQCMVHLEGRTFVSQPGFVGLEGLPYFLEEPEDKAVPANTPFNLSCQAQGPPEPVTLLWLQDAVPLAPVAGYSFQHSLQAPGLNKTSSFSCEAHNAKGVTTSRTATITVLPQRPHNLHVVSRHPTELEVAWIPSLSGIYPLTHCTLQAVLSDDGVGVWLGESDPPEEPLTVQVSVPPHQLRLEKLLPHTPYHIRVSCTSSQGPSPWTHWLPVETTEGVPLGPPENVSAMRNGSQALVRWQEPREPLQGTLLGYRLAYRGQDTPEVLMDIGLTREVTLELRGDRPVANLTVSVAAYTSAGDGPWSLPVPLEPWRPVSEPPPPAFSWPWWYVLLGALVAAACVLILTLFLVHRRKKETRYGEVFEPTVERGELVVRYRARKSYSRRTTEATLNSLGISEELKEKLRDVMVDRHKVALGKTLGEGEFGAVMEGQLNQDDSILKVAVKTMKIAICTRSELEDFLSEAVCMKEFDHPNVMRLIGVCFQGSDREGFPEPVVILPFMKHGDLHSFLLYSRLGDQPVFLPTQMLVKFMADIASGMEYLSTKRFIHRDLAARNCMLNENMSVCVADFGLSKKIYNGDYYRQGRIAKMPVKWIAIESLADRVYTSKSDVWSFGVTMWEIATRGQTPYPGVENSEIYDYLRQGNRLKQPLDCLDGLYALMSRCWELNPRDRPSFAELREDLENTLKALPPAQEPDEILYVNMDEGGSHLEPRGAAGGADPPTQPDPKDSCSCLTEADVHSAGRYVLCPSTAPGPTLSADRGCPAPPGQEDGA

B1: Mecbotamab vedotin (conjugate, chains of the INN, looked up)
VH: EVQLVQSGAEVKKPGATVKISCKVSGYSFWGATMNWIRQPPGKGLEWIGLIKPSNGGTSYNQKFKGRVTISADKSISTAYLQWSSLKASDTAMYYCAHGHYESYEAMDYWGQGTLVTVSS
VL: DIQMTQSPSSLSASVGDRVTITCKASQDVVSAVAWYQQKPGQAPRLLIYWQDTRHTGVPSRFSGSGSGTEFTLTISSLQPDDFATYYCQEHFSPPLTFGQGTKVEIK
modifications: MC-vc-PAB-MMAE conjugate
[1]; conditions mimicking the TME (pH 6.0-7.0)
  binding to human Axl: high affinity and specificity
[1]; conditions mimicking the normal tissue environment (pH 7.3-7.4)
  binding to human Axl: reduced binding
[2]
  binding to rat Axl: not mouse or rat Axl; also recorded: lacked binding to the rodent enzyme
